Measured values as given in US20110014209A1.

Assays:
[1] = molecular target: CD81 MBP-LEL (maltose-binding protein fused to the CD81 large extracellular loop, residues 113-201) (human) (UniProt P60033); assay: CD81 MBP-LEL solid-phase assay, virion-incorporated E2
[2] = molecular target: HCV E1 glycoprotein (H77c), expressed from the pE1E2 vectors (hepatitis C virus H77c) (UniProt P27958); assay: cell-based or functional assay
[3] = molecular target: full-length human CD81 expressed on transfected CHO-K1 cells (human) (UniProt P60033); assay: binding to CD81-transfected CHO-K1 cells, 125I-9E10 detection
Chain of full-length human CD81 expressed on transfected CHO-K1 cells (human) (P60033 whole entry): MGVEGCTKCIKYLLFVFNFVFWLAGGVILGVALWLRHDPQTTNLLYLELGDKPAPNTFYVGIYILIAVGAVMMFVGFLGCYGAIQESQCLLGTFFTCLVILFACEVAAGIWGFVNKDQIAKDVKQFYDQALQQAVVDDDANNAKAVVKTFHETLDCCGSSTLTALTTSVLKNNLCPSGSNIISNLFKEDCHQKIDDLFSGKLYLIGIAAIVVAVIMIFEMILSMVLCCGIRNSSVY

Chain of CD81 MBP-LEL (maltose-binding protein fused to the CD81 large extracellular loop, residues 113-201) (human) (P60033 113-201 limits assumed): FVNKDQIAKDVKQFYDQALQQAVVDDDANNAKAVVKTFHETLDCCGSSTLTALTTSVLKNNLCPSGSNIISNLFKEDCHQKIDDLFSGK

Substance: E2 glycoprotein expressed from pE1E2 Δ1 (HVR1 deletion, residues 387-408 replaced by GSSG) (from UniProt P27958 409-746)
- fold increase in the overall binding curve compared to wild-type [1]: 4 fold

Substance: E2 glycoprotein expressed from pE1E2 Δ3 link (igVR deletion with extended linker) (from UniProt P27958 384-571; P27958 579-746)
- E1E2-mediated entry of pseudotyped HIV-1 particles into Huh7 cells (luciferase) [2]: 8 fold

Substance: E2 Δ12-myc (from UniProt P27958 384-386; P27958 409-459; P27958 486-661)
- percent reduction in CD81 binding compared to E2 Δ23-myc [3]: 50%
